Data: the supplement of paper PMC10126150
± gives the standard deviation of the averaged measurements.

What follows are sequences tested on ATP (assay: switch fluorescence ratio, 500 uM ATP over buffer (Cy3 cluster intensity, sum of 5 cycles each) (fold (ratio)); higher = stronger signal-on switching upon ATP binding; sequences stand for … in TCGTCGGCAGCGTCAGATGTGTATAAGAGACAGTTTTTTTTTTTTTTTTTTTTTTTTT…TC). Conditions: aptamer strand: ATP DNA aptamer (quencher-CACCTGGGGGAGTATTGCGGAGGAAGG + anchor), 100 nM annealed; ATP concentration: 500 uM.
Outline: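 Cy3-labelled switching-strand clusters on a modified Illumina MiSeq flow-cell were annealed to 100 nM quencher-labelled ATP aptamer, imaged in selection buffer, then imaged after 15 min with 500 uM ATP at 22 °C. Five buffer/ATP cycles ran, with NaOH stripping and re-annealing between them. The fluorescence ratio is summed target-cycle over summed buffer-cycle Cy3 intensity per cluster, averaged per switch-domain sequence. Clusters outside 100-1000 RFU were excluded.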
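Also: ATP exposure 15 min at 22 °C before imaging.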

GACCTGGGTC and ATGCCGGGGC are within error of each other in switch fluorescence ratio: 1.01 ± 0.0023 for the first, 1.02 ± 0.037 for the second.

First: CAGCCGGGGA
Second: GGTGCGGTTG
The switch fluorescence ratio of the first is higher: 1.02 ± 0.019 for the first, 0.9975 ± 0.00035 for the second.

First: TAGGGAACGC
Second: CGGTTATTGG
The switch fluorescence ratio of the first is higher: 1.02 ± 0.011 for the first, 0.958 ± 0.041 for the second.

ATTGTAAGAT and AAAATTCCGG are within error of each other in switch fluorescence ratio: 0.994 ± 0.027 for the first, 1.011 ± 0.0011 for the second.

ATCGGGGGGT and AACTCTGGTT are within error of each other in switch fluorescence ratio: 1.01 ± 0.035 for the first, 0.968 ± 0.048 for the second.

Going from GCGTAGTATT to GCCTAGTATA, the switch fluorescence ratio falls from 0.9954 ± 0.0085 to 0.9714 ± 0.0049.

GCGCTACGTG and TACAGGGTTT are within error of each other in switch fluorescence ratio: 1.01 ± 0.026 for the first, 1.021 ± 0.005 for the second.

Compared with TGATGGGTAG, GTTTCCAGGG is higher in switch fluorescence ratio: 0.998 ± 0.028 for the first, 1.16 ± 0.023 for the second.

TAGGGAAGGT and TGAATTCGGG are the same in switch fluorescence ratio: 1.01 ± 0.034 for the first, 1.01 ± 0.064 for the second.

TGGTAGGGGT and TTAGAATGGG are within error of each other in switch fluorescence ratio: 1 ± 0.014 for the first, 1.12 ± 0.14 for the second.

TAACGGGTTT and AAATGCGGGG are within error of each other in switch fluorescence ratio: 1.02 ± 0.015 for the first, 0.978 ± 0.036 for the second.

TCTAGGTTTT and GTCTCTTCAT are within error of each other in switch fluorescence ratio: 1.005 ± 0.0047 for the first, 0.986 ± 0.026 for the second.

Going from ATAGGTGCTT to TTTTTTTTGG, the switch fluorescence ratio falls from 1.131 ± 0.01 to 0.998 ± 0.032.

AAGGGGGTAT and ATTAAGGGGG are within error of each other in switch fluorescence ratio: 0.999 ± 0.043 for the first, 0.9982 ± 0.0069 for the second.

GTGTTCCGTG and TCGAAAGAGA are within error of each other in switch fluorescence ratio: 1.01 ± 0.015 for the first, 1.02 ± 0.025 for the second.

TGGGGGCCTT and TTGGAAAATT are within error of each other in switch fluorescence ratio: 1.02 ± 0.053 for the first, 1.21 ± 0.35 for the second.

TTAGTGACGT and AAAATGCGAT are within error of each other in switch fluorescence ratio: 1.037 ± 0.0016 for the first, 1.01 ± 0.045 for the second.

AGGTATTGCT and GAAGTCTGGA are within error of each other in switch fluorescence ratio: 0.9854 ± 0.0091 for the first, 1 ± 0.024 for the second.

TTCCTATTGA and TTTCAATTGT are within error of each other in switch fluorescence ratio: 0.99 ± 0.049 for the first, 1.02 ± 0.047 for the second.

TATCGTCGGA and GATGCGTGCT are within error of each other in switch fluorescence ratio: 0.9823 ± 0.0035 for the first, 0.993 ± 0.055 for the second.

TTATTTATTG and TCGTGGCTGT are within error of each other in switch fluorescence ratio: 0.99 ± 0.016 for the first, 1 ± 0.042 for the second.

AAATAAAGGG and CCCTTAGTGT are within error of each other in switch fluorescence ratio: 0.987 ± 0.032 for the first, 1.04 ± 0.031 for the second.

Going from AGTTGCATGC to ATGATGAAGT, the switch fluorescence ratio rises from 0.9677 ± 0.0093 to 1.02 ± 0.017.

TTAGGTCTCT and AGGGTTGCGC are within error of each other in switch fluorescence ratio: 0.977 ± 0.025 for the first, 1.02 ± 0.019 for the second.

TGGGTGTGG and AAGGAACGGC are within error of each other in switch fluorescence ratio: 1.015 ± 0.0075 for the first, 0.963 ± 0.043 for the second.

ATAAGGCCTA and CATGTTTCTA are within error of each other in switch fluorescence ratio: 0.991 ± 0.038 for the first, 0.995 ± 0.02 for the second.

AAATTAAATT and TGGAGTGGAG are within error of each other in switch fluorescence ratio: 0.996 ± 0.039 for the first, 0.989 ± 0.023 for the second.

TTACGGGGCC and TAATAACTCT are within error of each other in switch fluorescence ratio: 0.977 ± 0.049 for the first, 1 ± 0.061 for the second.

Going from GACGGACTTT to AATTTACAGC, the switch fluorescence ratio falls from 1.143 ± 0.006 to 1.03 ± 0.042.

CTGTCGTTTC and CTGCATGACG are within error of each other in switch fluorescence ratio: 0.975 ± 0.044 for the first, 1.01 ± 0.047 for the second.

TAAAACCGGG and CGGGTTGTAG are the same in switch fluorescence ratio: 1 ± 0.025 for the first, 1 ± 0.036 for the second.

AAACGAGAAC and ATTTCTTTTG are within error of each other in switch fluorescence ratio: 3.04 ± 2.8 for the first, 1.02 ± 0.056 for the second.

AGTTGTAGGG and GTAGTTGGAG are within error of each other in switch fluorescence ratio: 1 ± 0.016 for the first, 0.992 ± 0.034 for the second.

ATCGAAAGTT and TGAATGCGCC are within error of each other in switch fluorescence ratio: 0.99 ± 0.013 for the first, 1.01 ± 0.025 for the second.

TATGATGCTC and AACGTAGTTT are within error of each other in switch fluorescence ratio: 0.998 ± 0.043 for the first, 1.02 ± 0.029 for the second.

TGCGGCCCAT and AAGTTAGTGG are within error of each other in switch fluorescence ratio: 0.979 ± 0.016 for the first, 1.01 ± 0.04 for the second.

Going from CATCAGGGTT to TTGTGATAGA, the switch fluorescence ratio rises from 0.974 ± 0.013 to 1.06 ± 0.052.

ATGTACAGGA and GGTGGGGCGT are within error of each other in switch fluorescence ratio: 1.05 ± 0.056 for the first, 1 ± 0.017 for the second.

ATTTTAGT and GGTTTGGGTA are the same in switch fluorescence ratio: 1.01 ± 0.038 for the first, 1.01 ± 0.0044 for the second.

GAAGTATTGT and AAATGATCTA are within error of each other in switch fluorescence ratio: 0.9951 ± 0.0062 for the first, 1.01 ± 0.029 for the second.

AACCTTTATA and TAAGGGTTG are within error of each other in switch fluorescence ratio: 1.01 ± 0.012 for the first, 0.985 ± 0.058 for the second.

TGCAAAATAA and ATTTGGGCTC are within error of each other in switch fluorescence ratio: 1.17 ± 0.24 for the first, 0.98 ± 0.029 for the second.

ATGTACTACT and GGGGTGTAAG are within error of each other in switch fluorescence ratio: 1.07 ± 0.068 for the first, 0.992 ± 0.02 for the second.

GGGTTTATTG and CGTCATGCGT are within error of each other in switch fluorescence ratio: 0.998 ± 0.049 for the first, 0.964 ± 0.025 for the second.

ATAAGCGGGG and TGTTCTTGGG are within error of each other in switch fluorescence ratio: 1.01 ± 0.04 for the first, 0.985 ± 0.026 for the second.

TGACGCCTGA and CAGCGGGGCA are the same in switch fluorescence ratio: 1.02 ± 0.022 for the first, 1.017 ± 0.0072 for the second.

CGATTCTTAA and AAACAAACCC are within error of each other in switch fluorescence ratio: 0.996 ± 0.011 for the first, 1.01 ± 0.042 for the second.

TTGCTGTTGG and GGAGTCGTCC are within error of each other in switch fluorescence ratio: 1.03 ± 0.033 for the first, 1.01 ± 0.024 for the second.

Going from TTTATATATG to CGCCTCGTAA, the switch fluorescence ratio rises from 1 ± 0.024 to 1.191 ± 0.01.

First: CTGTTTCGGT
Second: TAGTAGTGGG
The switch fluorescence ratio of the first is lower: 0.962 ± 0.021 for the first, 1.01 ± 0.022 for the second.

AAGGGGTCGG and TGTTAGAGGG are within error of each other in switch fluorescence ratio: 1 ± 0.036 for the first, 1.01 ± 0.063 for the second.

Compared with GCGCAACTGG, GGGTGTATTG is lower in switch fluorescence ratio: 1.352 ± 0.0074 for the first, 1.01 ± 0.044 for the second.

First: TTCGGCGAGA
Second: TAGGGGGAGA
The switch fluorescence ratio of the first is lower: 0.989 ± 0.021 for the first, 1.06 ± 0.043 for the second.

TGGTTGGGCA and GGTTCTAGTG are within error of each other in switch fluorescence ratio: 0.993 ± 0.055 for the first, 0.968 ± 0.025 for the second.

TTCGGTATGC and GGTTCTCTAG are within error of each other in switch fluorescence ratio: 0.98 ± 0.047 for the first, 0.976 ± 0.01 for the second.

First: CCGGTATATC
Second: TTTTTGTGCA
The switch fluorescence ratio of the first is higher: 2.517 ± 0.025 for the first, 1.01 ± 0.011 for the second.

CGTGAGGCAG and GGCCGGCCAG are within error of each other in switch fluorescence ratio: 0.978 ± 0.056 for the first, 1.01 ± 0.047 for the second.

TACAATCGGA and TTTTAGAGGG are within error of each other in switch fluorescence ratio: 0.9791 ± 0.0067 for the first, 0.982 ± 0.034 for the second.

CAGGGGAAGG and TTTTGGCTAT are within error of each other in switch fluorescence ratio: 1.04 ± 0.053 for the first, 1.017 ± 0.0015 for the second.

GCACGGGCCC and TTAACGGGAA are within error of each other in switch fluorescence ratio: 0.99 ± 0.028 for the first, 1 ± 0.024 for the second.

ATTTTTGGC and CGTTACAAGC are within error of each other in switch fluorescence ratio: 1.03 ± 0.06 for the first, 1.1 ± 0.086 for the second.

TTTTCAGATG and TAGTGATTGG are within error of each other in switch fluorescence ratio: 1.02 ± 0.015 for the first, 1 ± 0.052 for the second.

First: CGTTAGCATT
Second: TAGAAGTGGT
The switch fluorescence ratio of the first is higher: 1.17 ± 0.027 for the first, 0.9963 ± 0.0084 for the second.

First: TTAGCGGGTT
Second: GAGTCCGTGG
The switch fluorescence ratio of the first is lower: 0.988 ± 0.048 for the first, 1.1 ± 0.021 for the second.

ATTGTGTCTG and GAACGGCTAG are within error of each other in switch fluorescence ratio: 1 ± 0.042 for the first, 1.02 ± 0.011 for the second.

First: GCGCGCTGGG
Second: ACCGTGGGTC
The switch fluorescence ratio of the first is lower: 0.9646 ± 0.0044 for the first, 1.02 ± 0.029 for the second.

First: TTAAGAACG
Second: TTTTCCTGCG
The switch fluorescence ratio of the first is lower: 1.002 ± 0.0087 for the first, 1.65 ± 0.64 for the second.

TTCGCGAAAT and GGCTTTAGTA are within error of each other in switch fluorescence ratio: 1.027 ± 0.01 for the first, 1.02 ± 0.027 for the second.

CATCTTATGA and AAAGTTCAGT are the same in switch fluorescence ratio: 0.99 ± 0.0043 for the first, 0.98958 ± 0.00071 for the second.

First: ACAACTTTTT
Second: ACGGCAAAGG
The switch fluorescence ratio of the first is lower: 1.02 ± 0.044 for the first, 1.155 ± 0.0063 for the second.

AAGGGTAAGT and GCTGCCGGGG are within error of each other in switch fluorescence ratio: 1.005 ± 0.0023 for the first, 0.971 ± 0.046 for the second.

GTGGAAAAAA and TTTTCGTAGC are within error of each other in switch fluorescence ratio: 1 ± 0.02 for the first, 1.09 ± 0.14 for the second.

Compared with TCCGGCTACC, ATCGTTCGCG is lower in switch fluorescence ratio: 1.38 ± 0.039 for the first, 0.996 ± 0.016 for the second.

First: GATACACCCG
Second: TTGTCCCGTG
The switch fluorescence ratio of the first is higher: 1.153 ± 0.0039 for the first, 1.01 ± 0.026 for the second.

GACATTTGCA and AGTTTAAGAT are within error of each other in switch fluorescence ratio: 1.03 ± 0.023 for the first, 1.005 ± 0.0071 for the second.

TACTGGAGGC and ACAGGTCTGT are within error of each other in switch fluorescence ratio: 1.02 ± 0.043 for the first, 0.9797 ± 0.0047 for the second.

AAGCGGTATC and CAGCATTGGG are within error of each other in switch fluorescence ratio: 1.03 ± 0.021 for the first, 0.978 ± 0.038 for the second.

CGTCGGGGGA and GCCTCGGGGC are within error of each other in switch fluorescence ratio: 1.01 ± 0.027 for the first, 1.02 ± 0.032 for the second.

GGGGAGCGCG was tested, and the switch fluorescence ratio was 0.981 ± 0.035.
